What was measured:
[1] = system: HeLa Kyoto; test: solubility change mitosis vs G1/S (difference of NP-40 vs SDS log2 ratios) (log2 ratio difference); higher = more soluble in mitosis
[2] = system: HeLa Kyoto; test: solubility in G1/S (NP-40 vs SDS abundance) (log2 ratio); higher = more soluble; settings: cell cycle stage: G1/S
[3] = system: HeLa Kyoto; test: thermal stability score vs G1/S (z-score of summed log2 fold changes over temperatures); higher = more thermally stable than in G1/S
[4] = system: HeLa Kyoto; test: melting temperature (median over replicates), in situ; higher = more thermally stable
[5] = cell cycle stage: early G1 (4.5 h after nocodazole release)
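Wherever melting temperature (median over replicates), in situ is given: HeLa Kyoto cells synchronized by double thymidine or nocodazole block, proteins quantified by TMT10plex mass spectrometry, three independent biological replicates.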
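Wherever solubility change mitosis vs G1/S (difference of NP-40 vs SDS log2 ratios) is given: synchronized HeLa Kyoto cells (double thymidine block for G1/S, nocodazole release for mitosis), protein amounts in NP-40 versus SDS lysates quantified by mass spectrometry, three biological replicates.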
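Wherever solubility in G1/S (NP-40 vs SDS abundance) is given: HeLa Kyoto cells arrested at G1/S by double thymidine block, proteins quantified by TMT10plex mass spectrometry in mild NP-40 versus SDS extracts, three biological replicates.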
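Wherever thermal stability score vs G1/S (z-score of summed log2 fold changes over temperatures) is given: synchronized HeLa Kyoto cells, proteins quantified by TMT10plex mass spectrometry, three biological replicates, mitosis taken 0.5 h after nocodazole release, G1/S directly after double thymidine block.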

Chain of PLSCR3 (chain, as listed by the source): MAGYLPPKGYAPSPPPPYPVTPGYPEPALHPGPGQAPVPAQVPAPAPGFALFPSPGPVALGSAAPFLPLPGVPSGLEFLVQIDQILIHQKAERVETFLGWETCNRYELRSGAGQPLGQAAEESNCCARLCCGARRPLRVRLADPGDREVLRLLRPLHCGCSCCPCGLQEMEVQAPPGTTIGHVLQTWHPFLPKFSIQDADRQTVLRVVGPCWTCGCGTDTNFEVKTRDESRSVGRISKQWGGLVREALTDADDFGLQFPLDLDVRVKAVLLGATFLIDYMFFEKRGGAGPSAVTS
Chain of WWC2 (chain, as listed by the source): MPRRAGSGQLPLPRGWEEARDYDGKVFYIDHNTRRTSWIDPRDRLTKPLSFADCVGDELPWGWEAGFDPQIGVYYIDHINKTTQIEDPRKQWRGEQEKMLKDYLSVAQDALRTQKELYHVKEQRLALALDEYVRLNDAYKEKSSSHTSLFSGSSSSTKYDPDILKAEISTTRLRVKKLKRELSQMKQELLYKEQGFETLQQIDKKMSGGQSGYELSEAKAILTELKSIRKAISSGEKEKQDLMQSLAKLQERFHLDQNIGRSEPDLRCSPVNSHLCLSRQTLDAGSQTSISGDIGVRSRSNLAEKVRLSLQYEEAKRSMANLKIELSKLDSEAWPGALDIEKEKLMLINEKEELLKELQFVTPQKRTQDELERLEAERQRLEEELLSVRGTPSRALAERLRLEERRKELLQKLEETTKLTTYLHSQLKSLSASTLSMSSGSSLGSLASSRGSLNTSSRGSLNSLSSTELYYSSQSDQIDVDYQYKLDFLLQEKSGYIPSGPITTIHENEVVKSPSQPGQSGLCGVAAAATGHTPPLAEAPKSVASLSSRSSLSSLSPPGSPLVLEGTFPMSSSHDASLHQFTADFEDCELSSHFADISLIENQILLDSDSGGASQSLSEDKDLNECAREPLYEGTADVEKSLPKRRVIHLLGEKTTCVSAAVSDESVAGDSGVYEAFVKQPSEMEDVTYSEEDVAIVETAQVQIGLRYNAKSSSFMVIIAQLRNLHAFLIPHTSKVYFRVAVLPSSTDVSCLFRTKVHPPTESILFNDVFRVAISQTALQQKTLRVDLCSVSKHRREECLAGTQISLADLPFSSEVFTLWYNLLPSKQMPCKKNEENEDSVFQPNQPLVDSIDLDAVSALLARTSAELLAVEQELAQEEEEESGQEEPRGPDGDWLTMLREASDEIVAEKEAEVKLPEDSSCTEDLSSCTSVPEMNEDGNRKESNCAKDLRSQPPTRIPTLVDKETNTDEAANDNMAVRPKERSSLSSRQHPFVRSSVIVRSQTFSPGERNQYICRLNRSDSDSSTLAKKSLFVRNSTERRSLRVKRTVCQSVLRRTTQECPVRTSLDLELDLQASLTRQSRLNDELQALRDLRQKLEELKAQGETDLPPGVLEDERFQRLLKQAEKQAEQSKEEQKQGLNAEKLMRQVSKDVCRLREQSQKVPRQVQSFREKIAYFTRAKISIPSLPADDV
Chain of CDK17 (chain, as listed by the source): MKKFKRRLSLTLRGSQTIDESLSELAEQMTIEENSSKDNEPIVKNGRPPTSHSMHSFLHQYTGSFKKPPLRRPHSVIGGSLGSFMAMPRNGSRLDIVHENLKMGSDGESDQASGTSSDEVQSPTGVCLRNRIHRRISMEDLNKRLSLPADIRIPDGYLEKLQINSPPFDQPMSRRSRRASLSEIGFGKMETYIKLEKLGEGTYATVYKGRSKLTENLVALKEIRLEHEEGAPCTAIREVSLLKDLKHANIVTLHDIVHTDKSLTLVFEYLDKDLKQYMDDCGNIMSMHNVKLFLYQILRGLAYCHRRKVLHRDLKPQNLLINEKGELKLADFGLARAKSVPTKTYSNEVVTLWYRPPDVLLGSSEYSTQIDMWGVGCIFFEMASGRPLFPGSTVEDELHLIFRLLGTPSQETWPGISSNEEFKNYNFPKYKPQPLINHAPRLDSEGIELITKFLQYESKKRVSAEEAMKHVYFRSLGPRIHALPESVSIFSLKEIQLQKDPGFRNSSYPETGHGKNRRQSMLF
Chain of UBE2D3 (chain, as listed by the source): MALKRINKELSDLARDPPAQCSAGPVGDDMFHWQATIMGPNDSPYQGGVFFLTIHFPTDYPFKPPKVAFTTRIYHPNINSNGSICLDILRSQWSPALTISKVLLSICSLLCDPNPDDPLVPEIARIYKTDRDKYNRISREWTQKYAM
Chain of PYM1 (chain, as listed by the source): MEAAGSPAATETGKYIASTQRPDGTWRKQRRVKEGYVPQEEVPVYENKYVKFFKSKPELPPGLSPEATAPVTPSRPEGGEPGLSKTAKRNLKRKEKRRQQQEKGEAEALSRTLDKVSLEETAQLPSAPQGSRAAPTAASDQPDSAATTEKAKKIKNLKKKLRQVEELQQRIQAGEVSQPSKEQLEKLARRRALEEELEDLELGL

Substance | solubility change mitosis (log2) [1] | solubility in G1/S (log2) [2] | thermal stability score [3, 5] | thermal stability score ([3]; cell cycle stage: mitosis) | melting temperature ([4]; cell cycle stage: G1/S) [°C] | melting temperature ([4]; cell cycle stage: mitosis) [°C]
ASPM | 0.177 | -0.625 | 0.917 | -0.0273 | – | –
CDK17 | 0.0778 | -0.187 | 0.0888 | -0.0845 | – | –
DYNC2H1 | 0.0553 | -0.273 | 0.756 | 0.972 | – | –
MAAAAGDGGGEGGAGLGSAAGLGPGPGLRGQGPSAEAHEGAPDPMPAALHPEEVAARLQRMQRELSNRRKILVKNLPQDSNCQEVHDLLKDYDLKYCYVDRNKRTAFVTLLNGEQAQNAIQMFHQYSFRGKDLIVQLQPTDALLCITNVPISFTSEEFEELVRAYGNIERCFLVYSEVTGHSKGYGFVEYMKKDFAAKARLELLGRQLGASALFAQWMDVNLLASELIHSKCLCIDKLPSDYRDSEELLQIFSSVHKPVFCQLAQDEGSYVGGFAVVEYSTAEQAEEVQQAADGMTIKGSKVQVSFCAPGAPGRSTLAALIAAQRVMHSNQKGLLPEPNPVQIMKSLNNPAMLQVLLQPQLCGRAVKPAVLGTPHSLPHLMNPSISPAFLHLNKAHQSSVMGNTSNLFLQNLSHIPLAQQQLMKFENIHTNNKPGLLGEPPAVVLQTALGIGSVLPLKKELGHHHGEAHKTSSLIPTQTTITAGMGMLPFFPNQHIAGQAGPGHSNTQEKQPATVGMAEGNFSGSQPYLQSFPNLAAGSLLVGHHKQQQSQPKGTEISSGAASKNQTSLLGEPPKEIRLSKNPYLNLASVLPSVCLSSPASKTTLHKTGIASSILDAISQGSESQHALEKCIAYSPPFGDYAQVSSLRNEKRGSSYLISAPEGGSVECVDQHSQGTGAYYMETYLKKKRVY [RAVER2] | -0.203 | 0.172 | 1.56 | 1.81 | – | –
MAAVLESLLREEVSVAAVVRWIARSTQGSEDNAGEAAALSSLRALRKEFVPFLLNFLREQSSRVLPQGPPTPAKTPGASAALPGRPGGPPRGSRGARSQLFPPTEAQSTAAEAPLARRGGRRRGPGPARERGGRGLEEGVSGESLPGAGGRRLRGSGSPSRPSLTLSDPPNLSNLEEFPPVGSVPPGPTGTKPSRRINPTPVSEERSLSKPKTCFTSPPISCVPSSQPSALDTSPWGLGLPPGCRSLQEEREMLRKERSKQLQQSPTPTCPTPELGSPLPSRTGSLTDEPADPARVSSRQRLELVALVYSSCIAENLVPNLFLELFFVFQLLTARRMVTAKDSDPELSPAVLDSLESPLFQSIHDCVFFAVQVLECHFQVLSNLDKGTLKLLAENERLLCFSPALQGRLRAAYEGSVAKVSLVMPPSTQAVSFQPETDNRANFSSDRAFHTFKKQRDVFYEVLREWEDHHEEPGWDFEKGLGSRIRAMMGQLSAACSHSHFVRLFQKQLLQMCQSPGGAGGTVLGEAPDVLSMLGADKLGRLWRLQERLMAPQSSGGPCPPPTFPGCQGFFRDFILSASSFQFNQHLMDSLSLKIQELNGLALPQHEPNDEDGESDVDWQGERKQFAVVLLSLRLLAKFLGFVAFLPYRGPEPPPTGELQDSILALRSQVPPVLDVRTLLQRGLQARRAVLTVPWLVEFLSFADHVVPLLEYYRDIFTLLLRLHRSLVLSQESEGKMCFLNKLLLLAVLGWLFQIPTVPEDLFFLEEGPSYAFEVDTVAPEHGLDNAPVVDQQLLYTCCPYIGELRKLLASWVSGSSGRSGGFMRKITPTTTTSLGAQPSQTSQGLQAQLAQAFFHNQPPSLRRTVEFVAERIGSNCVKHIKATLVADLVRQAESLLQEQLVTQGEEGGDPAQLLEILCSQLCPHGAQALALGREFCQRKSPGAVRALLPEETPAAVLSSAENIAVGLATEKACAWLSANITALIRREVKAAVSRTLRAQGPEPAARGERRGCSRACEHHAPLPSHLISEIKDVLSLAVGPRDPDEGVSPEHLEQLLGQLGQTLRCRQFLCPPAEQHLAKCSVELASLLVADQIPILGPPAQYRLERGQARRLLHMLLSLWKEDFQGPVPLQLLLSPRNVGLLADTRPREWDLLLFLLRELVEKGLMGRMEIEACLGSLHQAQWPGDFAEELATLSNLFLAEPHLPEPQLRACELVQPNRGTVLAQS [CDAN1] | 0.117 | 0.0358 | 0.128 | -0.765 | – | –
MAGFAELGLSSWLVEQCRQLGLKQPTPVQLGCIPAILEGRDCLGCAKTGSGKTAAFVLPILQKLSEDPYGIFCLVLTPTRELAYQIAEQFRVLGKPLGLKDCIIVGGMDMVAQALELSRKPHVVIATPGRLADHLRSSNTFSIKKIRFLVMDEADRLLEQGCTDFTVDLEAILAAVPARRQTLLFSATLTDTLRELQGLATNQPFFWEAQAPVSTVEQLDQRYLLVPEKVKDAYLVHLIQRFQDEHEDWSIIIFTNTCKTCQILCMMLRKFSFPTVALHSMMKQKERFAALAKFKSSIYRILIATDVASRGLDIPTVQVVINHNTPGLPKIYIHRVGRTARAGRQGQAITLVTQYDIHLVHAIEEQIKKKLEEFSVEEAEVLQILTQVNVVRRECEIKLEAAHFDEKKEINKRKQLILEGKDPDLEAKRKAELAKIKQKNRRFKEKVEETLKRQKAGRAGHKGRPPRTPSGSHSGPVPSQGLV [DDX49] | -0.0629 | -0.148 | 2.1 | 1.97 | – | –
MAGKAAAPGTAVLLVTANVGSLFDDPENLQKNWLREFYQVVHTHKPHFMALHCQEFGGKNYEASMSHVDKFVKELLSSDAMKEYNRARVYLDENYKSQEHFTALGSFYFLHESLKNIYQFDFKAKKYRKVAGKEIYSDTLESTPMLEKEKFPQDYFPECKWSRKGFIRTRWCIADCAFDLVNIHLFHDASNLVAWETSPSVYSGIRHKALGYVLDRIIDQRFEKVSYFVFGDFNFRLDSKSVVETLCTKATMQTVRAADTNEVVKLIFRESDNDRKVMLQLEKKLFDYFNQEVFRDNNGTALLEFDKELSVFKDRLYELDISFPPSYPYSEDARQGEQYMNTRCPAWCDRILMSPSAKELVLRSESEEKVVTYDHIGPNVCMGDHKPVFLAFRIMPGAGKPHAHVHKCCVVQ [INPP5A] | -0.17 | -0.359 | 0.56 | -0.257 | – | –
MAGVGDAAAPGEGGGGGVDGPQRDGRGEAEQPGGSGGQGPPPAPQLTETLGFYESDRRRERRRGRTELSLLRFLSAELTRGYFLEHNEAKYTERRERVYTCLRIPRELEKLMVFGIFLCLDAFLYVFTLLPLRVFLALFRLLTLPCYGLRDRRLLQPAQVCDILKGVILVICYFMMHYVDYSMMYHLIRGQSVIKLYIIYNMLEVADRLFSSFGQDILDALYWTATEPKERKRAHIGVIPHFFMAVLYVFLHAILIMVQATTLNVAFNSHNKSLLTIMMSNNFVEIKGSVFKKFEKNNLFQMSNSDIKERFTNYVLLLIVCLRNMEQFSWNPDHLWVLFPDVCMVIASEIAVDIVKHAFITKFNDITADVYSEYRASLAFDLVSSRQKNAYTDYSDSVARRMGFIPLPLAVLLIRVVTSSIKVQGILSYACVILFYFGLISLKVLNSIVLLGKSCQYVKEAKMEEKLSNPPATCTPGKPSSKSQNKCKPSQGLSTEENLSASITKQPIHQKENIIPLLVTSNSDQFLTTPDGDEKDITQDNSELKHRSSKKDLLEIDRFTICGNRID [TAPT1] | 0.0176 | -0.313 | -2.91 | -4.92 | – | –
MTTTTTFKGVDPNSRNSSRVLRPPGGGSNFSLGFDEPTEQPVRKNKMASNIFGTPEENQASWAKSAGAKSSGGREDLESSGLQRRNSSEASSGDFLDLKGEGDIHENVDTDLPGSLGQSEEKPVPAAPVPSPVAPAPVPSRRNPPGGKSSLVLG [HN1] | 0.268 | -0.248 | – | – | 52.1 | –
MVGPAPRRRLRPLAALALVLALAPGLPTARAGQTPRPAERGPPVRLFTEEELARYGGEEEDQPIYLAVKGVVFDVTSGKEFYGRGAPYNALTGKDSTRGVAKMSLDPADLTHDTTGLTAKELEALDEVFTKVYKAKYPIVGYTARRILNEDGSPNLDFKPEDQPHFDIKDEF [NENF] | -0.0192 | 0.423 | – | – | 55.3 | 52.4
MYLSICCCFLLWAPALTLKNLNYSVPEEQGAGTVIGNIGRDARLQPGLPPAERGGGGRSKSGSYRVLENSAPHLLDVDADSGLLYTKQRIDRESLCRHNAKCQLSLEVFANDKEICMIKVEIQDINDNAPSFSSDQIEMDISENAAPGTRFPLTSAHDPDAGENGLRTYLLTRDDHGLFGLDVKSRGDGTKFPELVIQKALDREQQNHHTLVLTALDGGEPPRSATVQINVKVIDSNDNSPVFEAPSYLVELPENAPLGTVVIDLNATDADEGPNGEVLYSFSSYVPDRVRELFSIDPKTGLIRVKGNLDYEENGMLEIDVQARDLGPNPIPAHCKVTVKLIDRNDNAPSIGFVSVRQGALSEAAPPGTVIALVRVTDRDSGKNGQLQCRVLGGGGTGGGGGLGGPGGSVPFKLEENYDNFYTVVTDRPLDRETQDEYNVTIVARDGGSPPLNSTKSFAIKILDENDNPPRFTKGLYVLQVHENNIPGEYLGSVLAQDPDLGQNGTVSYSILPSHIGDVSIYTYVSVNPTNGAIYALRSFNFEQTKAFEFKVLAKDSGAPAHLESNATVRVTVLDVNDNAPVIVLPTLQNDTAELQVPRNAGLGYLVSTVRALDSDFGESGRLTYEIVDGNDDHLFEIDPSSGEIRTLHPFWEDVTPVVELVVKVTDHGKPTLSAVAKLIIRSVSGSLPEGVPRVNGEQHHWDMSLPLIVTLSTISIILLAAMITIAVKCKRENKEIRTYNCRIAEYSHPQLGGGKGKKKKINKNDIMLVQSEVEERNAMNVMNVVSSPSLATSPMYFDYQTRLPLSSPRSEVMYLKPASNNLTVPQGHAGCHTSFTGQGTNASETPATRMSIIQTDNFPAEPNYMGSRQQFVQSSSTFKDPERASLRDSGHGDSDQADSDQDTNKGSCCDMSVREALKMKTTSTKSQPLEQEPEECVNCTDECRVLGHSDRCWMPQFPAANQAENADYRTNLFVPTVEANVETETYETVNPTGKKTFCTFGKDKREHTILIANVKPYLKAKRALSPLLQEVPSASSSPTKACIEPCTSTKGSLDGCEAKPGALAEASSQYLPTDSQYLSPSKQPRDPPFMASDQMARVFADVHSRASRDSSEMGAVLEQLDHPNRDLGRESVDAEEVVREIDKLLQDCRGNDPVAVRK [PCDH17] | -0.0215 | 0.25 | – | – | 53.8 | 53.4
PHLPP1 | -0.0508 | 0.00518 | – | – | 51.7 | 51.2
PIEZO2 | -0.0931 | -0.112 | – | – | 55.7 | 54.8
PLSCR3 | -0.119 | 0.116 | – | – | – | 56.6
PYM1 | 0.791 | 0.42 | – | – | 57.1 | 53.9
QSER1 | -0.127 | -0.136 | – | – | 46.5 | 48.5
RAP1GAP | -0.474 | 0.239 | – | – | 49.2 | –
RERE | 0.148 | -0.116 | – | – | – | 50.7
RINT1 | -0.105 | -0.0714 | – | – | 51.4 | 49.2
SYNE2 | 0.607 | -0.84 | – | – | 51.1 | 50.3
TNRC6A | -0.0232 | -0.225 | – | – | 50.7 | –
UBE2D3 | 0.0226 | 0.585 | – | – | 49.5 | –
WWC2 | -0.0226 | -0.102 | – | – | 51.1 | 49.9
